Results as given in patent US20020151682A1 (UCB, published 2002).

Molecular target: T1, human tumour necrosis factor alpha (TNFα) (human, UniProt P01375 77-233)
T1 construct: also called human TNF; recombinant human TNFα
Assay: affinity; method not named at the sentence (BiaCore with captured hTNF40 and human TNF in flow is described at paragraph 169)
From the text: Following the injection of ligand, buffer was passed over the surface so that the dissociation could be measured.

T1 sequence (P01375 77-233 limits assumed): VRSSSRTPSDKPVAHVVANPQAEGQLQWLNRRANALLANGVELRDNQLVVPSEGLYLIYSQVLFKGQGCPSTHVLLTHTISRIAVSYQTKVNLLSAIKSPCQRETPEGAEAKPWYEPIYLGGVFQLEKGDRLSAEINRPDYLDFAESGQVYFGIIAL

B1: mouse monoclonal antibody hTNF40 (antibody, IgG2a, V domains shown)
VH: QIQLVQSGPELKKPGETVKISCKASGYVFTDYGMNWVKQAPGKAFKWMGWINTYIGEPIYVDDFKGRFAFSLETSASTAFLQINNLKNEDTATYFCARGYRSYAMDYWGQGTSVTVSS
VL: DIVMTQSQKFMSTSVGDRVSVTCKASQNVGTNVAWYQQKPGQSPKALIYSASFLYSGVPYRFTGSGSGTDFTLTISTVQSEDLAEYFCQQYNIYPLTFGAGTKLELKR
notes: The light chain constant region is kappa and the heavy chain constant region is IgG2a (mouse); also called murine hTNF40; the donor antibody
  Kd: ~0.085 nM
